Laboratory results: patent US20230183379A1 (published 2023)

Target: transferrin receptor 1 (TfR1), human (human, UniProt P02786 1-760)
Experiment: FACS binding, Raji cells, 4 °C

Chain of transferrin receptor 1 (TfR1), human (P02786 whole entry): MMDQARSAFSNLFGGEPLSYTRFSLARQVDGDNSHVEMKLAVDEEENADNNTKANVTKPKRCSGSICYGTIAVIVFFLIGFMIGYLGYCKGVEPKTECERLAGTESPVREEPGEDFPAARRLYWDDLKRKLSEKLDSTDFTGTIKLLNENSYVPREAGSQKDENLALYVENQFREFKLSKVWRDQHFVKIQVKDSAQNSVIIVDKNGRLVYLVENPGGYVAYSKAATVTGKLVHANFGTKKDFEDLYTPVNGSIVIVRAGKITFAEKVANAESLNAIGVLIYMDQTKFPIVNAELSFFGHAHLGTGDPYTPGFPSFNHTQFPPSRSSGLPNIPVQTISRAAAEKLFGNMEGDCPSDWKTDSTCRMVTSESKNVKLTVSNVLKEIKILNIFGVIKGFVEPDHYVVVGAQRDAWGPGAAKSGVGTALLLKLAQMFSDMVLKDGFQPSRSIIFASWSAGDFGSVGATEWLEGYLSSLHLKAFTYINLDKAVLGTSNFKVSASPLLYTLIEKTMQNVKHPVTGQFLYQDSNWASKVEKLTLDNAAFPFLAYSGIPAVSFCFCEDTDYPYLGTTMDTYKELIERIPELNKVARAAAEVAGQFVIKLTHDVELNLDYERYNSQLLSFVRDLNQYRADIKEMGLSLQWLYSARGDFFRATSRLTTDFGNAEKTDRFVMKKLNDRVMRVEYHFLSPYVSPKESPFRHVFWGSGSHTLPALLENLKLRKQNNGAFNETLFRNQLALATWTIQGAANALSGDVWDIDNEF

EC50: 1.13 nM
B1: F12-IgG1 (IgG1 anti-TfR1 F12 antibody) (antibody, V domains shown)
VH: QVQLQESGGGLVQPGGSLRLSCAASGFSFNTYTMHWVRQAPGKGLEWVADIAYDGSTKYYADSVKGRFTISRDNAKNSLYLQMNSLRAEDTAVYYCARDAVAGEGYFDLWGRGTLVTVSS
VL: QSALTQDPAVSVALGQTVRITCQGDSLRSYYASWYQQLPGTAPKLLIYRNNQRPSGVPDRFSGSKSGTSASLAISGLRSEDEADYYCAAWDDSLSAWVFGGGTKLTVLG
